Laboratory results from PMC6001692, “Chlamydial virulence factor TarP mimics talin to disrupt the talin‐vinculin complex” (Febs Letters, 2018).
Where no end group is shown, it is not given here.

What was measured:
[1] = biological target: T1, FAK‐FAT domain (residues 941–1090) (Mus musculus, UniProt P34152); experiment: Fluorescence polarisation assay, fluorescein-labelled LD-motif peptides titrated with FAK-FAT domain; format: binding
T1 construct: the FAK‐FAT domain (residues 941–1090); 6xHis (cleaved yes); made in house; host or cells: E. coli BL21 (DE3)
T1 sequence (P34152 904-1052 limits assumed): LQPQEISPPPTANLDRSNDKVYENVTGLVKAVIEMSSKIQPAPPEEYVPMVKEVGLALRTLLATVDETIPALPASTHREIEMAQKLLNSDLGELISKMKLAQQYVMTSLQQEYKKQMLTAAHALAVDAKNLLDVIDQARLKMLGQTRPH
Source text: Chicken vinculin Vd1 (residues 1–259), murine talin R10 (residues 1815–1973), and the FAK‐FAT domain (residues 941–1090) were cloned into a pET151 vector (Invitrogen) and expressed in E .coli BL21 (DE3) cells cultured in LB. Standard nickel‐affinity chromatography was used to purify the His‐tagged recombinant proteins as described previously 15. The proteins were further purified using anion‐exchange chromatography following cleavage of the 6xHis‐tag with TEV protease. Protein concentrations were determined using the respective extinction coefficients at 280 nm.
Peptides with either a C‐ or N‐terminal cysteine were synthesised by GLBiochem (China).
Peptides were coupled to a thiol‐reactive fluorescein dye via the terminal cysteine. Stock solutions were made in phosphate‐buffered saline (PBS; 137 mM NaCl, […], […], […], pH 7.4), 1 mM TCEP and 0.05% Triton X‐100. Excess dye was removed using a PD‐10 desalting column (GE Healthcare, Chicago, IL, USA). […] Fluorescent polarisation (FP) measurements were recorded on a BMGLabTech CLARIOstar plate reader at room temperature and analysed using GraphPad Prism. K d values were calculated with nonlinear curve fitting using a one‐site total binding model. […]

[2] = biological target: T2, vinculin Vd1 (residues 1–259) (Gallus gallus, UniProt P12003); experiment: Fluorescence polarisation assay, fluorescein-labelled peptides titrated with vinculin head Vd1; format: binding, Chicken; details: FP; negative control; Kd ND in Fig. 1D
T2 construct: Chicken vinculin Vd1 (residues 1–259); 6xHis (cleaved yes); made in house; host or cells: E. coli BL21 (DE3)
Procedure: Peptides were coupled to a thiol‐reactive fluorescein dye via the terminal cysteine. Stock solutions were made in phosphate‐buffered saline (PBS; 137 mM NaCl, 27 mM KCl, 100 mM Na2HPO4, 18 mM KH2PO4, pH 7.4), 1 mM TCEP and 0.05% Triton X‐100. Excess dye was removed using a PD‐10 desalting column (GE Healthcare, Chicago, IL, USA). Titrations were performed in PBS using a constant 1 μM concentration of fluorescein‐coupled peptide with increasing concentration of protein; final volume 100 μL in a black 96‐well plate. Fluorescent polarisation (FP) measurements were recorded on a BMGLabTech CLARIOstar plate reader at room temperature and analysed using GraphPad Prism. K d values were calculated with nonlinear curve fitting using a one‐site total binding model.
In this assay, synthetic VBS peptides (Materials and methods) were fluorescently labelled with fluorescein and titrated against an increasing concentration of Vd1.

[3] = biological target: T3, Chicken vinculin Vd1 (residues 1–259) (chicken, UniProt P12003 1-259); experiment: SEC-MALS; analytical gel filtration, Superdex-75, 4 °C, 50 mM Tris pH 7.5, 150 mM NaCl, 2 mM DTT; 100 μM of each protein at 1:1 (talin:Vd1), incubated at 37 °C for 30 min; details: both partners purified
T3 construct: also called vinculin head; vinculin head domain
T3 sequence (looked up): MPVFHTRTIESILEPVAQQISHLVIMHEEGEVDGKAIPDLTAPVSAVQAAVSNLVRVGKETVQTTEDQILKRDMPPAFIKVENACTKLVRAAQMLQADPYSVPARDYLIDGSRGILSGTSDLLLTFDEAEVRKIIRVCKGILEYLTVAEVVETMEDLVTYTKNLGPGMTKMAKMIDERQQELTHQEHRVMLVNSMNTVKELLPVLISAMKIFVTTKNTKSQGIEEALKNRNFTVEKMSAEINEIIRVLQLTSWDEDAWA

[4] = biological target: T3, Chicken vinculin Vd1 (residues 1–259); experiment: fluorescence polarisation; 1 μM fluorescein-coupled peptide constant, increasing concentration of protein; PBS, room temperature, 96-well plate; one-site total binding fit; triplicate; details: both partners purified
[5] = biological target: FAK‐FAT domain (residues 941–1090); experiment: as above

Q: With “EGAEGLEHLLPQLRSHLDDAFDQQGN‐C [TarP LD, synthetic LD-motif peptide of C. caviae TarP, residues 655–680, with C-terminal cysteine]” as the molecule, how does the “Binding to FAK-FAT by FP (in words)” value ([1]; fluorescein-labelled peptide, Kd ND in Fig. 4B) read?
A: no increase in polarisation

Q: What about the “Interaction with Vd1 (in words)” value [2] of the same molecule?
A: does not interact with Vd1

Q: `CC(C)C[C@H](NC(=O)[C@H](CCC(=O)O)NC(=O)[C@H](CC(C)C)NC(=O)[C@H](CC(C)C)NC(=O)[C@H](CC(C)C)NC(=O)[C@H](CCCNC(=N)N)NC(=O)[C@H](CC(=O)O)NC(=O)[C@H](CC(C)C)NC(=O)[C@H](CCC(=O)O)NC(=O)[C@H](CO)NC(=O)[C@H](CC(C)C)NC(=O)[C@H](CC(N)=O)NC(=O)[C@@H](N)CS)C(=O)N[C@@H](CC(N)=O)C(=O)O` [Paxillin LD2, reference compound] was tested. Which Kd ([1]; FP, 1 μM fluorescein-coupled peptide, increasing FAK-FAT, PBS, room temperature, ± SE, read-out: Dissociation constant Kd for binding to FAK-FAT) did it give?
A: 9.01 µM

B1: murine talin R10 (residues 1815–1973) (domain or fragment, UniProt P26039 1815-1973, looked up)
chain: NEAASAAGVVGGMVDSITQAINQLDEGPMGDPEGSFVDYQTTMVRTAKAIAVTVQEMVTKSNTSPEELGPLANQLTSDYGRLASQAKPAAVAAENEEIGAHIKHRVQELGHGCSALVTKAGALQCSPSDVYTKKELIECARRVSEKVSHVLAALQAGNR
notes: also called talin rod domain R10
Q: With B1 as the molecule, how does the “stoichiometry N” value [3] read?
A: 1

B2: TarP_VBS1 peptide (C. caviae residues 850–868) with C-terminal cysteine, fluorescein-coupled (peptide)
peptide: LLEAARNTTTMLSKTLSKVC(fluorescein)
notes: source: synthetic peptide (GLBiochem)
Q: B2 was tested. Which Kd [4] did it give?
A: 1.29 µM

B3: Pax_LD2 peptide (paxillin residues 141–153) with N-terminal cysteine, fluorescein-coupled (peptide)
peptide: CNLSELDRLLLELN
modifications: fluorescein (thiol-reactive dye) coupled via the N-terminal cysteine
Q: How did the Kd [5] turn out when B3 was run?
A: 9 µM

B4: mTal1_VBS36 peptide (talin residues 1622–1656) with N-terminal cysteine, fluorescein-coupled (peptide)
peptide: C(fluorescein)VNPRDPPRWSVLAGHSRTVSDSIKKLITSMRDKAP
notes: also called talin VBS36; source: synthetic peptide (GLBiochem)
Q: B4 was tested. Which Kd [4] did it give?
A: 1.03 µM
